The values that follow are results of earlier work, collected in article PMC12404997.

A word on the Kd: it is the constant that tells how readily two partners part at equilibrium.

In this data set the target is RhoA (Homo sapiens) (UniProt P61586).
UniProt P61586, sequence (P61586 1-190): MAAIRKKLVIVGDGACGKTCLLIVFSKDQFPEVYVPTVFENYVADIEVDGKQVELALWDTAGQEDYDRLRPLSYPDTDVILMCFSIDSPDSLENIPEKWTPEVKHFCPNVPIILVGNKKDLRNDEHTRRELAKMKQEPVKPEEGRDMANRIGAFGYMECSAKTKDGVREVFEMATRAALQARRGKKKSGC

For the substance anillin (from UniProt Q9NQW6), the Kd is 7 µM.
